Assay results as given in PMC6910952 (Nature Communications, 2019).
Residue numbers refer to the chain shown, from its start. In names and notes the source's numbering stands. Values belong to the binder of their own block, whether it stands above or below them. No end group written: not given here.

Tests used:
[1] = target: T1, His6-yNpl4^113–580 (Saccharomyces cerevisiae, UniProt P33755 113-580); test: fluorescence polarisation; fluorescence anisotropy; 1 nM FlAsH-labeled His6-SUMO-yUfd1 peptide, His6-yNpl4^113–580 in two-fold dilution series; 25 °C; 50 mM Tris-HCl pH 8.0, 100 mM NaCl, 5 mM β-mercaptoethanol, 0.1 g/L BSA; conditions: both partners purified
T1 construct: codon-optimized synthetic cDNA; also called WT; WT #1; source: E. coli Rosetta (DE3), purified (Ni-NTA, Resource Q); also in lysate, mixed with cells expressing GST-yUfd1 for co-purification; not shown: His6, N-terminal, kept
T1 sequence (looked up): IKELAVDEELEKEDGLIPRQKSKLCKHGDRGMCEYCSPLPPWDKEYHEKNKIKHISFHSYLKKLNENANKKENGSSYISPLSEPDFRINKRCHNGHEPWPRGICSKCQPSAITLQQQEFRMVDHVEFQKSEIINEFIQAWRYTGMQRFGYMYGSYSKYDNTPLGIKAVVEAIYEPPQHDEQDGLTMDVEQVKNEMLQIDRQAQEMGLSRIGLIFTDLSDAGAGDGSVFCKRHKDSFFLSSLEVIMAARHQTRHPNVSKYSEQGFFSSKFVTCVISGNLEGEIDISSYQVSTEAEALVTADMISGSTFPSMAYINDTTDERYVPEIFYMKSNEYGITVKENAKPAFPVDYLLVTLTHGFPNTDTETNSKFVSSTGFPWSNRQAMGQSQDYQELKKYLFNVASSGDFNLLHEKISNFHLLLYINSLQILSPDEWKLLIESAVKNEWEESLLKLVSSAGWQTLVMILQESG

[2] = target: T2, Cdc48 (recombinant, hexameric) (Saccharomyces cerevisiae, UniProt P25694 1-835); test: pull-down; GST-yNpl4 (0.5 μM, wild type or mutant) on Glutathione Sepharose 4B beads, 1 h at room temperature with 0.5 μM yUfd1, 3 μM Cdc48 (0.5 μM hexamer) and 1 μg K48 chains in 100 μL 50 mM Tris-HCl pH 7.5, 100 mM NaCl, 10% glycerol, 0.1% Triton X-100; chains detected by anti-Ub immunoblot, proteins by Ponceau S; conditions: both partners purified
T2 construct: Cdc48 AAA-family ATPase of Saccharomyces cerevisiae; source: E. coli Rosetta (DE3) (pET21a), purified (TALON resin, Superose 6)
T2 sequence (P25694 whole entry): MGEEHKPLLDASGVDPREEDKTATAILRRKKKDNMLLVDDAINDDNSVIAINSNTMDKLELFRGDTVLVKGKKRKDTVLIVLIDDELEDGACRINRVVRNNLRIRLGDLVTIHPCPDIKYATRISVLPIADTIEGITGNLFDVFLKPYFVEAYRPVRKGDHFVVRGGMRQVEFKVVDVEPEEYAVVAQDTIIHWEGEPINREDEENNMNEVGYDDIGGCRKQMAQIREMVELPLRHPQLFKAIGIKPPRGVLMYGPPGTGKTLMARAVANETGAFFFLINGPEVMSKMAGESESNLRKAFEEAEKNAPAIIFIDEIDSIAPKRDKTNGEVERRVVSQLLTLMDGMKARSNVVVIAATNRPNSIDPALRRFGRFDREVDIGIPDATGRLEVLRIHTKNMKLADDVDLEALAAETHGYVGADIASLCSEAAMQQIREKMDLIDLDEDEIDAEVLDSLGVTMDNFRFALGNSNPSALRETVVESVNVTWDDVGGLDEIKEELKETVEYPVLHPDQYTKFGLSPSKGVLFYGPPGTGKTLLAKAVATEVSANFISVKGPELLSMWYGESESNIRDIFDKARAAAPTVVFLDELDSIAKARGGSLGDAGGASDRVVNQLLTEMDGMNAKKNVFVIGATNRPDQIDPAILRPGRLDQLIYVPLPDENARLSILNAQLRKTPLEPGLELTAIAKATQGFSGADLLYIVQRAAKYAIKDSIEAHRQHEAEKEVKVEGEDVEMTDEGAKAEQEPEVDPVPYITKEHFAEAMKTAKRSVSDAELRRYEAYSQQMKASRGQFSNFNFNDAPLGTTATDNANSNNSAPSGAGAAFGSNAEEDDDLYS

Kd [1]: 0.619 µM
B2: FlAsH-labeled His6-SUMO-yUfd1^288–305-GWCCPGCC G297L (peptide, UniProt P53044 288-305, looked up)
chain: {His6-SUMO}-EPAKLDLPELQLFFGFPMGWCCPGCC
modifications: cysteine pairing not given here; also: FlAsH label bound to CCPGCC motif
notes: Ufd1 of Saccharomyces cerevisiae (yUfd1), residues 288-305 (NBM); also called yUfd1 G297L; source: E. coli Rosetta (DE3) (pCold-SUMO), purified (Ni-NTA, Resource Q), labeled with FlAsH-EDT2; not shown: His6, N-terminal, kept; SUMO, N-terminal, kept

Kd [1]: 5.29 µM
B5: FlAsH-labeled His6-SUMO-yUfd1^288–305-GWCCPGCC L292A (peptide, UniProt P53044 288-305, looked up)
chain: {His6-SUMO}-EPAKADLPEGQLFFGFPMGWCCPGCC
modifications: cysteine pairing not given here; also: FlAsH label bound to CCPGCC motif
notes: Ufd1 of Saccharomyces cerevisiae (yUfd1), residues 288-305 (NBM); also called yUfd1 L292A; source: E. coli Rosetta (DE3) (pCold-SUMO), purified (Ni-NTA, Resource Q), labeled with FlAsH-EDT2; not shown: His6, N-terminal, kept; SUMO, N-terminal, kept

binding result [2]: binds
B7: GST-yNpl4 T571A (natural protein, Saccharomyces cerevisiae, UniProt P33755 1-580, looked up)
chain: MLIRFRSKNGTHRVSCQENDLFGTVIEKLVGNLDPNADVDTFTVCEKPGQGIHAVSELADRTVMDLGLKHGDMLILNYSDKPANEKDGVNVEIGSVGIDSKGIRQHRYGPLRIKELAVDEELEKEDGLIPRQKSKLCKHGDRGMCEYCSPLPPWDKEYHEKNKIKHISFHSYLKKLNENANKKENGSSYISPLSEPDFRINKRCHNGHEPWPRGICSKCQPSAITLQQQEFRMVDHVEFQKSEIINEFIQAWRYTGMQRFGYMYGSYSKYDNTPLGIKAVVEAIYEPPQHDEQDGLTMDVEQVKNEMLQIDRQAQEMGLSRIGLIFTDLSDAGAGDGSVFCKRHKDSFFLSSLEVIMAARHQTRHPNVSKYSEQGFFSSKFVTCVISGNLEGEIDISSYQVSTEAEALVTADMISGSTFPSMAYINDTTDERYVPEIFYMKSNEYGITVKENAKPAFPVDYLLVTLTHGFPNTDTETNSKFVSSTGFPWSNRQAMGQSQDYQELKKYLFNVASSGDFNLLHEKISNFHLLLYINSLQILSPDEWKLLIESAVKNEWEESLLKLVSSAGWQALVMILQESG
notes: Npl4 of Saccharomyces cerevisiae (yNpl4), full length; source: E. coli Rosetta (DE3) (pGEX-6P1), purified (Glutathione Sepharose FF, Resource Q); not shown: GST, N-terminal, kept

binding result [2]: binds
B8: GST-yNpl4 A494F (natural protein, Saccharomyces cerevisiae, UniProt P33755 1-580, looked up)
chain: B7 chain with A494F, A571T
notes: as for B7

binding result [2]: binds
B9: GST-yNpl4 M574Q (natural protein, Saccharomyces cerevisiae, UniProt P33755 1-580, looked up)
chain: B7 chain with A571T, M574Q
notes: as for B7

binding result [2]: binds
B10: GST-yNpl4 I575A (natural protein, Saccharomyces cerevisiae, UniProt P33755 1-580, looked up)
chain: B7 chain with A571T, I575A
notes: as for B7

binding result [2]: binds
B11: GST-yNpl4 M574A (natural protein, Saccharomyces cerevisiae, UniProt P33755 1-580, looked up)
chain: B7 chain with A571T, M574A
notes: as for B7

The next lines start with the binder.

B1: FlAsH-labeled His6-SUMO-yUfd1^288–305-GWCCPGCC L294A (peptide, UniProt P53044 288-305, looked up)
chain: {His6-SUMO}-EPAKLDAPEGQLFFGFPMGWCCPGCC
modifications: cysteine pairing not given here; also: FlAsH label bound to CCPGCC motif
notes: Ufd1 of Saccharomyces cerevisiae (yUfd1), residues 288-305 (NBM); also called yUfd1 L294A; source: E. coli Rosetta (DE3) (pCold-SUMO), purified (Ni-NTA, Resource Q), labeled with FlAsH-EDT2; not shown: His6, N-terminal, kept; SUMO, N-terminal, kept
Kd [1]: 0.527 µM

B3: FlAsH-labeled His6-SUMO-yUfd1^288–305-GWCCPGCC F301A (peptide, UniProt P53044 288-305, looked up)
chain: {His6-SUMO}-EPAKLDLPEGQLFAGFPMGWCCPGCC
modifications: cysteine pairing not given here; also: FlAsH label bound to CCPGCC motif
notes: Ufd1 of Saccharomyces cerevisiae (yUfd1), residues 288-305 (NBM); also called yUfd1 F301A; source: E. coli Rosetta (DE3) (pCold-SUMO), purified (Ni-NTA, Resource Q), labeled with FlAsH-EDT2; not shown: His6, N-terminal, kept; SUMO, N-terminal, kept
Kd [1]: 20.8 µM

B4: FlAsH-labeled His6-SUMO-yUfd1^288–305-GWCCPGCC L299A (peptide, UniProt P53044 288-305, looked up)
chain: {His6-SUMO}-EPAKLDLPEGQAFFGFPMGWCCPGCC
modifications: cysteine pairing not given here; also: FlAsH label bound to CCPGCC motif
notes: Ufd1 of Saccharomyces cerevisiae (yUfd1), residues 288-305 (NBM); also called yUfd1 L299A; source: E. coli Rosetta (DE3) (pCold-SUMO), purified (Ni-NTA, Resource Q), labeled with FlAsH-EDT2; not shown: His6, N-terminal, kept; SUMO, N-terminal, kept
Kd [1]: 12.7 µM

B6: FlAsH-labeled His6-SUMO-yUfd1^288–305-GWCCPGCC G297Y (peptide, UniProt P53044 288-305, looked up)
chain: {His6-SUMO}-EPAKLDLPEYQLFFGFPMGWCCPGCC
modifications: cysteine pairing not given here; also: FlAsH label bound to CCPGCC motif
notes: Ufd1 of Saccharomyces cerevisiae (yUfd1), residues 288-305 (NBM); also called yUfd1 G297Y; source: E. coli Rosetta (DE3) (pCold-SUMO), purified (Ni-NTA, Resource Q), labeled with FlAsH-EDT2; not shown: His6, N-terminal, kept; SUMO, N-terminal, kept
Kd [1]: 2.14 µM

B12: GST-yNpl4 S498R (natural protein, Saccharomyces cerevisiae, UniProt P33755 1-580, looked up)
chain: B7 chain with S498R, A571T
notes: as for B7
binding result [2]: binds
